The record followed here is publication PMC5947639.

For experiment [1], the target named is MafR_(V583), untagged MafR protein from Enterococcus faecalis V583 (Enterococcus faecalis V583). The experiment can be described thus: SEC.
The target is the same in experiment [2]. Nature of the experiment: AUC.

Broadly, the stoichiometry N is the number of molecules, sites or subunits per partner or assembly. As for “MafR_(V583), untagged MafR protein from Enterococcus faecalis V583 (natural protein)”, the stoichiometry N in experiment [1] and in experiment [2] was 2 in each case.
